The values that follow come from publication PMC10720262 (2023).

The target in the experiment is PfCSP full length (Plasmodium falciparum (isolate NF54), UniProt P19597). The experiment in a line: ELISA AUC.
Sequence of PfCSP full length (P19597 20-375): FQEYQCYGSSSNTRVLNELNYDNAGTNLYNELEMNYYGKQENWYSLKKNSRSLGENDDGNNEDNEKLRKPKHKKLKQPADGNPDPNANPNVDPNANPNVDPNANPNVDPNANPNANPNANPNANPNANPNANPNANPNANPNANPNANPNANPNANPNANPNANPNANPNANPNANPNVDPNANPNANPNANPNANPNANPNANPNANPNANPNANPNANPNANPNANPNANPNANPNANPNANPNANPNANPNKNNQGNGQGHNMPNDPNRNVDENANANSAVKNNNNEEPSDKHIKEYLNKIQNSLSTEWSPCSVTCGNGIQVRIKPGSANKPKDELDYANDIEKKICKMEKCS

B1: CL-510416 (antibody, V domains shown)
VH: QVQLVESGGGVVQPGRSLRLSCEASGFTFSNYGMHWVRQGPGKGLEWVALMWYDGSNKYYSDSVKGRFTISRDNSKSTLYLQMNSLRAEDTAVYYCARPITGNTHSKYTMDVWGQGTTVTVSS
VL: DIQMTQSPSTLSASVGDRVTITCRASQSISSWLAWYQQKPGKAPKLLIYKASTLESGVPSRFSGSGSGTEFTLTISSLQPDDFATYFCQQYNSYWTFGQGTKVEIK
modifications: peptides N-terminally acetylated and C-terminally amidated
B1 gave a binding score of 2.57.

B2: Ky15.10 (antibody, V domains shown)
VH: QVQLVESGGGVVQPGRSLRLSCAASGFTFSNSGMHWVRQVPGKGLEWVAIIWYDGSNKYYADSVKGRFSVSRDNSENTLYLQMSNLRAEDTAVYYCVRAYFDSENLYDYYGMDVWGQGTTVTVSS
VL: DIQMTQSPSTLSASVGDRVTITCRASQSISRWLAWFQKKPGKAPKLLIYTASNLESGVPSRFSGSGSGTEFTLTISSLQPDDFATYYCQQYYNYWTFGQGTKVEVK
modifications: peptides N-terminally acetylated and C-terminally amidated
For the molecule B2, the binding score was determined as 2.17.

B3: CL-512870 (antibody, V domains shown)
VH: QVQLVESGGGVVQPGRSLRLSCEASGFTFSHYGMHWVRQAPGRGLEWVAIIWYDGSNTYYRDSVKGRFTISRDNSKDTLFLQMNSLRPDDTAVYYCARALYYDSGSLFDFWGQGTLVTVSS
VL: DIQMTQSPSTLSASVGDRVTITCRASQSISSWLAWYQQKPGKAPKLLIYKASSLETGVPSRFSGSGFGTEFTLSISSLQPDDFATYYCLQYNIYWTFGQGTKVEIK
modifications: peptides N-terminally acetylated and C-terminally amidated
In turn, B3 returned a binding score of 2.23.

B4: CL-513274 (antibody, V domains shown)
VH: QVQLVESGGGVVQPGRSLRVSCAASGFTFSNYGMYWVRQAPGKGLEWVALIWHDGSNKFYEDSVKGRFTISRDNSKNTLYLQMNSLRAEDTAVYYCARAGYFQGSGSFLDYWGQGTLVTVSS
VL: DIQMTQSPSTLSASVGDRVTITCRASQSISTWLAWYQQKPGKAPKLLIYKASSLESGVPSRFSGSGSGTEFTLTISSLQPDDFATYFCQQYSSYWTFGQGTKVEIK
modifications: peptides N-terminally acetylated and C-terminally amidated
Regarding B4, the binding score was 2.23.

B5: CL-444906 (antibody, V domains shown)
VH: QVQLVESGGGVVQPGRSLRLSCTASGFTFSTYGMHWVRQAPGKGLEWVAIIWYDGSNKFYADSVKGRFTISRDNSKDTLYLQMNSLRAEDTAIYYCARAWDKVDDKYGMDVWGQGTTVTVSS
VL: not shown
modifications: peptides N-terminally acetylated and C-terminally amidated
B5 displayed a binding score of 2.6.

B6: CL-442127 (antibody, V domains shown)
VH: QAQLVESGGGVVQPGKSLRLSCAASRFTFRNYGMHWVRQGPVKGLEWVALIWHDGSNKFYSDSVRDRFTISRDNSKNKLFLQMNSLTADDTALYYCVRSNYDGSGTYGWFGPWGQGTLVTVSS
VL: EIVLTQSPGTLSLSPGERATLSCRASQSVISNYLAWYQQKPGQAPRLLIYGASTRDIGIPDRFSGSGSGTDFTLTISRLEPEDFAVYFCHQYGSSFTFGPGTKVDFK
modifications: peptides N-terminally acetylated and C-terminally amidated
For the molecule B6, the binding score was 2.3.

B7: CL-509940 (antibody, V domains shown)
VH: QVQLVESGGGVVQPGRSLRLSCAASGFTFSTYGMHWVRQAPGKGLEWVAVIWYDGSIKFYADSVKGRFTISRDDSKNTLYLQMNSLRAEDTAVYYCARDGGYSDSGRFGWFDPWGQGNLVTVSS
VL: EIVMTQSPVTLSVSPGERVTLSCRASQSVSSNLAWYQQKPGQAPRLLIYGASNRATGIPDRFSGSGSGTEFSLTVTSLQSEDFAVYYCQQYNQWRTFGQGTKVEIR
modifications: peptides N-terminally acetylated and C-terminally amidated
B7 yielded a binding score of 2.09.

B8: CL-512206 (antibody, V domains shown)
VH: QVQLVESGGGVVQPGRSLRLSCAASGFTFSHYGMHWVRQAPGKGLEWVAVIWYDGNNKFYADSVKGRFTISRDNSNNTLYLQMNSLRAEDTAVYHCVRERTGATSRGFDFWGQGTLVTVSS
VL: QSVLTQPPSVSAAPGQKVTISCSGSDSNIEKYYVSWYQQLPGSAPKLLIYDNNKRPSGIPDRFSGSKSGTSATLGITGLQTGDEAVYYCGTWDSSLSTGVFGGGTKLTVL
modifications: peptides N-terminally acetylated and C-terminally amidated
Turning to B8, the binding score was found to be 1.86.
